Experimental data reported in the supplement of paper PMC6757056.
± gives the standard deviation of the averaged measurements.

B1: library; a variant is named by its letters at N, in order (parent)
chain: GCUGUCACCGAGAAACUGUGAAGUAUAUCUUAAACCUGGGCACUUAAAAGAUAUAUGGAGUUAGUAGUGCAACCUGCUCGGUCUGAUGAGUCCNNNNNNGGACGAAACAGC

Legend:
cyclic di-GMP [1] = variants of: B1; assay: normalized RNA/DNA level without ligand (relative to sTRSVctl = 100) (log10 (% of sTRSVctl)); HEK293T; ligand: cyclic di-GMP (c-di-GMP-II aptamer); higher = less ribozyme self-cleavage, higher mRNA level; details: reporter: mCherry (pCS4076), ligand present: no
In short: (§1)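 HEK293T cells were transfected with library plasmids carrying ribozyme switches linked to an mCherry reporter, or an eGFP reporter in some ligand experiments, at 4 µg per well of a 6-well plate, with any ligand added 1 h beforehand. After 72 h, total RNA was extracted with EDTA, reverse-transcribed, amplified, barcoded and sequenced. RNA level was defined as RNA reads over DNA reads, normalized to a spiked-in non-cleaving sequence or to the top-ranked sequences. That value was multiplied by 100 and converted to log10, the top set was 25 sequences, and only sequences with ≥100 DNA reads were retained.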

cyclic di-GMP [2] = variants of: B1; assay: normalized RNA/DNA level with ligand (relative to sTRSVctl = 100) (log10 (% of sTRSVctl)); HEK293T; ligand: cyclic di-GMP (c-di-GMP-II aptamer); ligand concentration (+) RNA-Seq: 1 mM; higher = less ribozyme self-cleavage, higher mRNA level; details: reporter: mCherry (pCS4076), ligand present: yes
In short: as §1

cyclic di-GMP [3] = variants of: B1; assay: FACS-Seq fitted mean relative fluorescence mCherry/BFP without ligand (log10 relative fluorescence); HEK293T; ligand: cyclic di-GMP (c-di-GMP-II aptamer); higher = higher reporter protein expression; details: ligand present: no
In short: (§2)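 After lentiviral transduction, HEK293T library cells bearing an mCherry ribozyme-switch reporter and an EF1α-BFP marker were enriched. They were then held for 48 h with or without ligand and sorted by mCherry/BFP into 6 bins, and each bin's genomic DNA was PCR-amplified, barcoded and MiSeq-sequenced. Fluorescence is expressed as a normalized fitted mean: the normal mean of log10(mCherry/BFP) bin counts, scaled to five spiked-in control ribozymes.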

cyclic di-GMP [4] = variants of: B1; assay: FACS-Seq fitted mean relative fluorescence mCherry/BFP with ligand (log10 relative fluorescence); HEK293T; ligand: cyclic di-GMP (c-di-GMP-II aptamer); ligand concentration (+) FACS-Seq: 1 mM; higher = higher reporter protein expression; details: ligand present: yes
In short: as §2

Variant | normalized RNA/DNA level without ligand (log10) (cyclic di-GMP [1]) | normalized RNA/DNA level with ligand (log10) (cyclic di-GMP [2]) | FACS-Seq fitted mean (log10) (cyclic di-GMP [3]) | FACS-Seq fitted mean (log10) (cyclic di-GMP [4])
GAAGUC | 1.59 ± 0.021 | 1.74 ± 0.038 | – | –
GAAGUG | 1.732 ± 0.0044 | 1.81 ± 0.095 | – | –
UAACUG | 1.73 ± 0.017 | 1.84 ± 0.13 | – | –
UAACUA | 1.688 ± 0.0017 | 1.82 ± 0.12 | – | –
CAAAGC | 1.717 ± 0.011 | 1.84 ± 0.091 | – | –
CAAAGG | 1.59 ± 0.033 | 1.75 ± 0.081 | – | –
UUUCGA | 1.82 ± 0.041 | 1.89 ± 0.079 | 0.0382 ± 0.21 | 0.251 ± 0.061
GAAGCC | 1.78 ± 0.034 | 1.89 ± 0.12 | – | –
GAAGCU | 1.715 ± 0.017 | 1.83 ± 0.11 | – | –
UAAAAA | 1.65 ± 0.048 | 1.78 ± 0.12 | – | –
UAAAAC | 1.697 ± 0.003 | 1.8 ± 0.1 | – | –
UAAAAU | 1.615 ± 0.00033 | 1.79 ± 0.099 | – | –
CAACUA | 1.39 ± 0.069 | 1.6 ± 0.15 | – | –
CAACUG | 1.75 ± 0.034 | 1.82 ± 0.13 | – | –
CAACUC | 1.685 ± 0.011 | 1.82 ± 0.086 | – | –
CAACUU | 1.49 ± 0.093 | 1.69 ± 0.078 | – | –
UAAACC | 1.77 ± 0.027 | 1.85 ± 0.076 | – | –
UAAACG | 1.747 ± 0.0073 | 1.85 ± 0.068 | – | –
UAAACU | 1.71 ± 0.061 | 1.85 ± 0.15 | – | –
CAAGGU | 1.64 ± 0.037 | 1.8 ± 0.1 | – | –
CAAGGG | 1.6 ± 0.063 | 1.8 ± 0.072 | – | –
CAAGGC | 1.705 ± 0.0097 | 1.82 ± 0.12 | – | –
CAAGGA | 1.46 ± 0.077 | 1.64 ± 0.064 | – | –
UUGUUC | 1.75 ± 0.018 | 1.89 ± 0.1 | -0.6418 ± 0.0047 | -0.462 ± 0.0095
GAACAU | 1.64 ± 0.033 | 1.78 ± 0.097 | – | –
GAACAA | 1.55 ± 0.03 | 1.7 ± 0.14 | – | –
GAACAC | 1.641 ± 0.014 | 1.78 ± 0.1 | – | –
UAACAG | 1.68 ± 0.02 | 1.86 ± 0.098 | – | –
UAACAA | 1.7 ± 0.034 | 1.83 ± 0.16 | – | –
UAACAC | 1.68 ± 0.035 | 1.83 ± 0.13 | – | –
